These substances were tested against Cy5-labeled extracellular domain of human Angiotensin-Converting Enzyme 2 (ACE2) (UniProt Q9BYF1). Settings: parent: est. 0; read off a plot.

“SARS-CoV-2 wild-type Spike S1 A222V; D614G” and SARS-CoV-2 wild-type Spike S1 D614G are within 0.2 log units of each other in other: Log2 EC50 (WT/MT): -0.1 for the first, -0.05 for the second.

Compared with “SARS-CoV-2 wild-type Spike S1 HV69-70 del; N501Y; D614G”, “SARS-CoV-2 wild-type Spike S1 L18F; D614G” is higher in other: Log2 EC50 (WT/MT): -0.05 for the first, 0.35 for the second.

First: SARS-CoV-2 wild-type Spike S1 N234Q
Second: SARS-CoV-2 wild-type Spike S1 T20N; D614G
The other: Log2 EC50 (WT/MT) of the first is lower: -0.05 for the first, 0.2 for the second.

SARS-CoV-2 wild-type Spike S1+S2 D614G showed an other: Log2 EC50 (WT/MT) of 0.45.
